Assay results: article PMC12210985

Experiments:
[1] = molecular target: T1, ArcA-P (Shewanella oneidensis MR-1) (UniProt Q8EAB9); assay: MST; details: EMSA: 2 mM EDTA, 20 mM KCl, 0.5 mM DTT, 4% Ficoll-400, pH 8.0, 2 ug poly(dI-dC), 10 nM probe, 10 uM cAMP for Crp; MST: 1x PBS pH 7.4, 0.05% Tween-20, 25 C
T1 sequence: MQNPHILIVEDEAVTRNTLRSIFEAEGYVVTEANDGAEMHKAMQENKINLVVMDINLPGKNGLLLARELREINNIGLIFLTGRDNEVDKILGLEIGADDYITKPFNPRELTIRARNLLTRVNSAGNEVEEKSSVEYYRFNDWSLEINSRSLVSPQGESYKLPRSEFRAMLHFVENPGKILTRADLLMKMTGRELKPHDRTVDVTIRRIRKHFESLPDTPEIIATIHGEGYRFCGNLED

[2] = molecular target: T2, MBP-Crp-His6 (Shewanella oneidensis MR-1) (UniProt Q8EJ49); assay: MST; details: EMSA: 2 mM EDTA, 20 mM KCl, 0.5 mM DTT, 4% Ficoll-400, pH 8.0, 2 ug poly(dI-dC), 10 nM probe, 10 uM cAMP for Crp; MST: 1x PBS pH 7.4, 0.05% Tween-20, 25 C
T2 sequence: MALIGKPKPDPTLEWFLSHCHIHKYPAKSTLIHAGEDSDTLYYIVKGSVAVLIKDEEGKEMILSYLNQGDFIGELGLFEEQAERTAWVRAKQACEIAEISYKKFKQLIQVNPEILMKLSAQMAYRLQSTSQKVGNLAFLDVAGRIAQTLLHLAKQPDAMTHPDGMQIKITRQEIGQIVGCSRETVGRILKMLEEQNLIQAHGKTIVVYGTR

[3] = molecular target: T1, ArcA-P (Shewanella oneidensis MR-1); assay: EMSA; details: EMSA: 2 mM EDTA, 20 mM KCl, 0.5 mM DTT, 4% Ficoll-400, pH 8.0, 2 ug poly(dI-dC), 10 nM probe, 10 uM cAMP for Crp; MST: 1x PBS pH 7.4, 0.05% Tween-20, 25 C
[4] = molecular target: T3, MBP-Crp (Shewanella oneidensis MR-1) (UniProt Q8EJ49); assay: EMSA; details: EMSA: 2 mM EDTA, 20 mM KCl, 0.5 mM DTT, 4% Ficoll-400, pH 8.0, 2 ug poly(dI-dC), 10 nM probe, 10 uM cAMP for Crp; MST: 1x PBS pH 7.4, 0.05% Tween-20, 25 C
T3 sequence: T2 sequence

[5] = test system: ArcA-P (Shewanella oneidensis MR-1); assay: MST; details: phosphorylated ArcA; EMSA: 2 mM EDTA, 20 mM KCl, 0.5 mM DTT, 4% Ficoll-400, pH 8.0, 2 ug poly(dI-dC), 10 nM probe, 10 uM cAMP for Crp; MST: 1x PBS pH 7.4, 0.05% Tween-20, 25 C
[6] = test system: MBP-Crp-His6 (Shewanella oneidensis MR-1); assay: MST; details: EMSA: 2 mM EDTA, 20 mM KCl, 0.5 mM DTT, 4% Ficoll-400, pH 8.0, 2 ug poly(dI-dC), 10 nM probe, 10 uM cAMP for Crp; MST: 1x PBS pH 7.4, 0.05% Tween-20, 25 C

| Substance | binding [1] | binding [2] | binding [3] | binding [4] | Kd [5] [nM] | Kd [6] [nM] |
| --- | --- | --- | --- | --- | --- | --- |
| AATAACAACCTCAACAAACTCATGTAAATGGCTAAGTTATACCACGGAACAGATAAGAGATAACTACTTTAGTCTAACTAAACAGGCAATTTAGCATTAAAGATATTTCAGAAACAATAAACCACACGATAAAATTTGAGCAGCAAAAAGGGGTAGTGTTCATAATTCTGTGTCATTTCAGTAAAATATTCAAAAACAGGAATGACAC (double strand) [ndh promoter probe (Pndh)] | binds | binds | binds | binds |  |  |
| nqr1 promoter probe (PnqrA1) |  |  |  |  | 560 | 120 |
| nqr2 promoter probe (PnqrA2) |  |  |  |  | 680 | 2020 |
